Measured values: article PMC9484695, “The evolutionary conserved proteins CEP90, FOPNL, and OFD1 recruit centriolar distal appendage proteins to initiate their assembly” (PLoS Biology, 2022)

T1: CEP90 (overexpressed) (UniProt Q8WXW3 1-757)
T1 construct: CEP90 (PIBF1), cDNA clone from Dharmacon horizondiscovery; no tag is named; also called overexpressed CEP90; source: U2OS, transfected (lipofectamine 2000), in cells
T1 sequence (looked up): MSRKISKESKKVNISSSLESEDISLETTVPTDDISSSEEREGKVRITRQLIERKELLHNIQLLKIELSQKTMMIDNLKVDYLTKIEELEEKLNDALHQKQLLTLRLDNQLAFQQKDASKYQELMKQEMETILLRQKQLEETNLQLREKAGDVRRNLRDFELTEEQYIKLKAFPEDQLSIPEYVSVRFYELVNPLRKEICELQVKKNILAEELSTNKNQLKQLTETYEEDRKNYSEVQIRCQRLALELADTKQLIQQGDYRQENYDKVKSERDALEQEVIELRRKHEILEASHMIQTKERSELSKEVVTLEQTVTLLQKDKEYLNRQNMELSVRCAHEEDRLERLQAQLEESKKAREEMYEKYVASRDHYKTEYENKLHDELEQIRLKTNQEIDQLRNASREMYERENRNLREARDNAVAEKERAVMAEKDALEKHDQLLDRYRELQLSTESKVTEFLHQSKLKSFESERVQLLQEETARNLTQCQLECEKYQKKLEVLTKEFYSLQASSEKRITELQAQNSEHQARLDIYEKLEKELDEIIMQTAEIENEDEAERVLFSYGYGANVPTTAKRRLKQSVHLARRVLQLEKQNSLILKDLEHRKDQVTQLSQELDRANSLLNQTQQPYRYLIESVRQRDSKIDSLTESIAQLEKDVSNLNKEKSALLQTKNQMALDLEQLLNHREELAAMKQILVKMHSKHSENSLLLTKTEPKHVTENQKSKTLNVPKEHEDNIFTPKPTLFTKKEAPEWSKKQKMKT

B1: CEP83 (endogenous) (natural protein, human (endogenous in U2OS), UniProt Q9Y592 1-701, looked up)
chain: MVVSTFTDMDTFPNNFPPGGDSGLTGSQSEFQKMLIDERLRCEHHKANYQTLKAEHTRLQNEHVKLQNELKHLFNEKQTQQEKLQLLLEELRGELVEKTKDLEEMKLQILTPQKLELLRAQIQQELETPMRERFRNLDEEVEKYRAVYNKLRYEHTFLKSEFEHQKEEYARILDEGKIKYESEIARLEEDKEELRNQLLNVDLTKDSKRVEQLAREKVYLCQKLKGLEAEVAELKAEKENSEAQVENAQRIQVRQLAEMQATVRSLEAEKQSANLRAERLEKELQSSSEQNTFLINKLHKAEREINTLSSKVKELKHSNKLEITDIKLETARAKSELERERNKIQSELDGLQSDNEILKAAVEHHKVLLVEKDRELIRKVQAAKEEGYQKLVVLQDEKLELENRLADLEKMKVEHDVWRQSEKDQYEEKLRASQMAEEITRKELQSVRLKLQQQIVTIENAEKEKNENSDLKQQISSLQIQVTSLAQSENDLLNSNQMLKEMVERLKQECRNFRSQAEKAQLEAEKTLEEKQIQWLEEKHKLHERITDREEKYNQAKEKLQRAAIAQKKRKSLHENKLKRLQEKVEVLEAKKEELETENQVLNRQNVPFEDYTRLQKRLKDIQRRHNEFRSLILVPNMPPTASINPVSFQSSAMVPSMELPFPPHMQEEQHQRELSLLRKRLEELETTQRKQLEELGSSGE
notes: CEP83, endogenous human protein; also called endogenous CEP83; source: endogenous, U2OS cells
B2: OFD1 (endogenous) (natural protein, UniProt O75665 1-1012, looked up)
chain: MMAQSNMFTVADVLSQDELRKKLYQTFKDRGILDTLKTQLRNQLIHELMHPVLSGELQPRSISVEGSSLLIGASNSLVADHLQRCGYEYSLSVFFPESGLAKEKVFTMQDLLQLIKINPTSSLYKSLVSGSDKENQKGFLMHFLKELAEYHQAKESCNMETQTSSTFNRDSLAEKLQLIDDQFADAYPQRIKFESLEIKLNEYKREIEEQLRAEMCQKLKFFKDTEIAKIKMEAKKKYEKELTMFQNDFEKACQAKSEALVLREKSTLERIHKHQEIETKEIYAQRQLLLKDMDLLRGREAELKQRVEAFELNQKLQEEKHKSITEALRRQEQNIKSFEETYDRKLKNELLKYQLELKDDYIIRTNRLIEDERKNKEKAVHLQEELIAINSKKEELNQSVNRVKELELELESVKAQSLAITKQNHMLNEKVKEMSDYSLLKEEKLELLAQNKLLKQQLEESRNENLRLLNRLAQPAPELAVFQKELRKAEKAIVVEHEEFESCRQALHKQLQDEIEHSAQLKAQILGYKASVKSLTTQVADLKLQLKQTQTALENEVYCNPKQSVIDRSVNGLINGNVVPCNGEISGDFLNNPFKQENVLARMVASRITNYPTAWVEGSSPDSDLEFVANTKARVKELQQEAERLEKAFRSYHRRVIKNSAKSPLAAKSPPSLHLLEAFKNITSSSPERHIFGEDRVVSEQPQVGTLEERNDVVEALTGSAASRLRGGTSSRRLSSTPLPKAKRSLESEMYLEGLGRSHIASPSPCPDRMPLPSPTESRHSLSIPPVSSPPEQKVGLYRRQTELQDKSEFSDVDKLAFKDNEEFESSFESAGNMPRQLEMGGLSPAGDMSHVDAAAAAVPLSYQHPSVDQKQIEEQKEEEKIREQQVKERRQREERRQSNLQEVLERERRELEKLYQERKMIEESLKIKIKKELEMENELEMSNQEIKDKSAHSENPLEKYMKIIQQEQDQESADKSSKKMVQEGSLVDTLQSSDKVESLTGFSHEELDDSW
notes: OFD1, endogenous human protein; source: endogenous: HEK293 Flp-In cells (BioID); Hela Kyoto lysate (co-IP); U2OS cells (microtubule recruitment assay)

Biological target: T1, CEP90 (overexpressed)
Test: microtubule recruitment (displacement) assay; U2OS cotransfected with MNR-GFP and CEP90, OFD1 mCherry or myc-FOPNL, 24 h; endogenous OFD1, CEP90, CEP83, CEP89, CEP164 stained; percent of cells with the endogenous protein on microtubules, 100 < N < 150 cells per condition, 3 experiments
Conditions: partners not purified

Binder	percent of cells with the endogenous protein on microtubules [%]
B1	66.7
B2	63.3
